Emax data for five molecules are collected here from patent publication EP4755920A1.

B1: IL4R-CHI-13 (antibody, V domains shown)
VH: EVQLQQSGPVLVKPGASVKMSCKASGYTFTDYYMNWVKQRHGKSLDWIGTINPYNGGTGYNQKFKGKATLTVDKSSSTAYMELNSLTSEDSAVYFCARSLLRRRGAMDYWGQGTSVTVSS
VL: DIVLTQSPASLVVSLGQRATISCRASKSVSTSGYGYIHWYRQKPGQPPKLLIYLVSNLESGVPARFSGSGSGTDFTLNIHPVEEEDAATYYCQHIRELYTFGGGTKLEIK
B2: IL4R-CHI-04 (antibody, V domains shown)
VH: DVQLQESGPGLVKPSQSLSLTCTVTGYSITSDYAWNWIRQFPGNKLEWMGYISYSGSSSYNPSLKSRISITRDTSKNQFFLQLNSVTTDDTATYYCAGGGLRRRGLFDYWGQGTTLTVSS
VL: QIVLSQSPAILSASPGEKVTMTCRATSSVTYMHWYQQKPGSSPKPWIYATSNLASGVPARFSGSGSGTSYSLTISRVEAEDTATYYCQQWSSIPLTFGAGTKLELK
B3: IL4R-CHI-07 (antibody, V domains shown)
VH: QVQLQQSGAELVKPGASVKLSCKASGYTFTEYTIHWVKQRSGQGLEWIGWFYPGRGSIKYNEKFKDKATLTADKSSSTVYMELSRLTSEDSAVYFCTRHEYRGSNYAMDYWGQGTSVTVSS
VL: DVLMTQTPLSLPVSLGDQASISCRSSQSIVHSSGNTYLQWYLQKPGQSPKLLIYKVSNRFSGVPDRFSGSGSGTDFTLKISRVEAEDLGVYYCFQGSHVPPTFGGGTKLEIK
B4: IL4R-CHI-17 (antibody, V domains shown)
VH: QAYLQQSGAELVRPGASVKMSCKASGYTFTSYNMHWAKQTPRQGLEWIGSIYPGNGDTSYNQKFKGKATLTVDKSSSTAYMQLSSLTSEDSAVYFCARGGRLRRGDWFAYWGQGTLVTVSA
VL: DIQMTQSPASLSASVGETVTITCRASENIYSYLIWYQQKQGKSPQLLVYDAKTLAEGVPSRFSGSGSGSQFSLKINSLQPEDFGTYYCQHHYGTPLTFGGGTKLELK
B5: IL4R-CHI-14 (antibody, V domains shown)
VH: EVMLVESGGGLVKPGGSLKLSCAASGFTFSSYAMSWVRQTPEKRLEWVAIISGGGDSTYYPDSVKGRFTISRDNAKNTLYLQMSSLRSEDTALYFCARLHYWYFDFWGTGTTVTVSS
VL: DIQMTQSSSSFSVSLGDRVTITCKASEDLYNRLAWYQQKPGNAPRLLISGATSLETGVPSRFSGSGSGRDYTLIITSLQTEDVATYYCQQYWRNPYTFGGGTKLEIK

The target in this assay is Full-length cynoIL4Rα on monkey IL4Rα-FlpinCHO cells (cynomolgus monkey). As to the kind of experiment: flow cytometry on monkey IL4Rα-FlpinCHO cells. (A flow cytometer gives signals particle by particle.)
Full-length cynoIL4Rα on monkey IL4Rα-FlpinCHO cells (cynomolgus monkey), sequence (A0A2K5 entry or part of it limits assumed): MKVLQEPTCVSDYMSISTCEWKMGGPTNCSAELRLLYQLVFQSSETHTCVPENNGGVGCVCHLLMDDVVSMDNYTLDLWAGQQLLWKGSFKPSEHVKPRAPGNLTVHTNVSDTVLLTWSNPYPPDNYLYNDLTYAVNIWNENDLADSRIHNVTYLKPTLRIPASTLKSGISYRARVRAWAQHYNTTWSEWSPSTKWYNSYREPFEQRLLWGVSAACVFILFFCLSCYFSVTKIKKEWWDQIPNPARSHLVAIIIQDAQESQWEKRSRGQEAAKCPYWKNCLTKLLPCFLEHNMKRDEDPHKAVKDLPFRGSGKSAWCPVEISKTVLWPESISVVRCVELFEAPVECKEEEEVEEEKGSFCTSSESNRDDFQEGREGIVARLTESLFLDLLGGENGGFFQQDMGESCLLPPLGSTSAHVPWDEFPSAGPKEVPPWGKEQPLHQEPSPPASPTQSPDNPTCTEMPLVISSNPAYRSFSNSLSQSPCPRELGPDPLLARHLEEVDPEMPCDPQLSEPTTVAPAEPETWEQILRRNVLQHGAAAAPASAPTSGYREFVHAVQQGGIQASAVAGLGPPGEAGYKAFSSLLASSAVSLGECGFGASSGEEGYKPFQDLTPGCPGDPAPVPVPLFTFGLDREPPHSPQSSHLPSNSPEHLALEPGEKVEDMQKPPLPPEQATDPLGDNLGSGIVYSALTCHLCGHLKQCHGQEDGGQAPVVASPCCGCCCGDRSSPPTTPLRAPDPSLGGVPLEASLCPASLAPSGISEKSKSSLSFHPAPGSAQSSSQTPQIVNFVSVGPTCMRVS
In turn, B1 had an Emax of 74.

In the case of B2, the Emax is 82.

On to B3, for which the Emax was found to be 58.

B4 showed an Emax of 68.

The molecule B5 came in with an Emax of 97.
